From patent US20090060924A1 (Eli Lilly, published 2009) come the findings set out here.

For experiment [1], the target named is T1, human sclerostin (human, UniProt Q9BQB4 24-213).
T1 construct: also called SOST gene product
T1 sequence: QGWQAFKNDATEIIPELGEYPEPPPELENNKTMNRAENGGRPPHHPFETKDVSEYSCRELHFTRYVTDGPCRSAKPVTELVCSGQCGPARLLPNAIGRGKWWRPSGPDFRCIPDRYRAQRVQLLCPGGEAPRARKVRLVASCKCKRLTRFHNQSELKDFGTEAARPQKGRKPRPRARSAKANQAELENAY
The experiment in a line: KinExA 3000 equilibrium binding in solution, 25 C, 1:1 model. How it is done: (§1) Equilibrium binding studies between an anti-sclerostin antibody and either human, cynomologous (“cyno”) monkey or rat sclerostin are performed on a KinExA 3000 instrument (Sapidyne Instruments Inc.) under KD-controlled conditions. With this technique, a fixed concentration of antibody below its KD is mixed with various concentration of sclerostin protein and allowed to come to equilibrium. The fraction of free, unbound, antibody remaining in solution is probed by briefly exposing this equibrated mixture to sclerostin-coated beads followed by detection with a fluorescently labeled secondary antibody. Typically 2 μM of an anti-sclerostin antibody to be tested is mixed with varying concentrations of human, cyno, or rat sclerostin starting at 2-50 nM and doing three-fold serial dilutions in binding buffer (1× phosphate buffered saline solution, pH 7.4, 0.02% sodium azide and 1 mg/mL bovine serum albumin) containing 2 pM of the antibody to be tested. These solutions are allowed to reach equilibrium over two days at 25° C. The amount of unbound antibody is probed using human sclerostin-coated azlactone beads (Sapidyne Instruments Inc.). These beads are prepared by reacting 50 mg of dry azlactone beads with 50 mcg/ml human sclerostin in a 50 mM sodium carbonate buffer at pH 9.0-9.6 with overnight rotation. Beads are then allowed to settle and the supernatant is replaced with blocking solution (1 M Tris, pH 8.0, plus 10 mg/mL bovine serum albumin) and rotated for one hour. This bead stock is diluted 20-fold into binding buffer and used within three days. A KinExA 3000 instrument equilibrated at room temperature (ca 25° C.) is used for binding studies. Typically 6.25 mL of the equilibrated antibody/sclerostin solution are drawn over a packed human sclerostin-azlactone bead column at 0.25 mL/minute flow rate then rinsed with running buffer (1× phosphate buffered saline solution, pH 7.4 with 0.02% sodium azide). The fraction of free anti-sclerostin antibody bound to these beads is quantified by measuring fluorescence resulting from an injected labeled secondary antibody (Cy5-labeled goat anti-human Fab′2 antibody). Two replicate samples for each condition are analyzed and KD is determined by fitting data to a 1:1 binding model using KinExA Pro software.
In general terms: A kinetic exclusion assay measures how much of one partner remains free in solution.

The target in experiment [2] is T2, cynomologous monkey sclerostin (cynomologous monkey).
T2 construct: also called cyno sclerostin; Cyno Sclerostin
The description is as above. On the procedure:
as §1

Another experiment deals with T3, rat sclerostin (rat, UniProt Q99P67 24-213, limits assumed).
T3 sequence (looked up): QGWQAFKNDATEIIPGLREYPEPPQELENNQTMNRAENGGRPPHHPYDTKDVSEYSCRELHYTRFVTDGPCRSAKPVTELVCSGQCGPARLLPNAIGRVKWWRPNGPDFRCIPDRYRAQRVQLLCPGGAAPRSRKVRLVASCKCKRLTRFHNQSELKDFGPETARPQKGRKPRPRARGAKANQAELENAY
Described as above. On the procedure:
as §1

The target in experiment [3] is T1, human sclerostin. The experiment in a line: cell-based or functional assay.
Experiment [4] deals with T2, cynomologous monkey sclerostin. Kind of experiment: cell-based or functional assay.

B1: humanized anti-sclerostin monoclonal antibody 89 (antibody, human IgG4 S228P, kappa, V domains shown)
VH: EVQLVQSGAEVKKPGESLKISCKGSDFEIKDYYIHWVRQMPGKGLEWMGQIDAEDGETEYAPRFQGQVTISADKSISTAYLQWSSLKASDTAMYYCAREGYYYDGRDYWYFDVWGQGTTVTVSS
VL: EIVLTQSPATLSLSPGERATLSCSASSSVSYIHWYQQKPGQAPRLLIYSTSELASGIPARFSGSGSGTDFTLTISSLEPEDFAVYYCQQLSHLPLTFGGGTKVEIKR
notes: Full-length humanized antibody; Derived from chimeric parent 789
Regarding B1, the Kd in the experiment with human sclerostin [1] amounted to 0.3 pM; in experiment [2], 1.4 pM; with rat sclerostin, 0.4 pM. The “IC50 (nM), bone specific alkaline phosphatase assay in C2C12 cells, using human sclerostin” value with human sclerostin [3] stood at 25.1 nM. Besides, the “IC50 (nM), bone specific alkaline phosphatase assay in C2C12 cells, using cyno sclerostin” value (“IC50 (nM) … using cyno sclerostin” for short) in experiment [4] stood at 34.4 nM.

B2: humanized anti-sclerostin monoclonal antibody 86 (antibody, human IgG4 S228P, kappa, V domains shown)
VH: QVQLVQSGAEVKKPGSSVKVSCKASGYTFTDYFLNWVRQAPGQGLEWMGTIYPYHDGTTYSQKFKGRVTITADKSTSTAYMELSSLRSEDTAVYYCAREEEDGQFDYWGQGTTVTVSS
VL: DIQMTQSPSSLSASVGDRVTITCSASQGIQWYLNWYQQKPGKAPKLLIYYTSSLHSGVPSRFSGSGSGTDFTLTISSLQPEDFATYYCQQHSKLPRTFGGGTKVEIKR
notes: Full-length humanized antibody; Two heavy and two light chains per claim 3
In the case of B2, the figures for the Kd (with human sclerostin [1]; in experiment [2]; with rat sclerostin) were 0.6 pM, 1 pM and 0.1 pM, respectively. Further, the “IC50 (nM), bone specific alkaline phosphatase assay in C2C12 cells, using human sclerostin” value with human sclerostin [3] turned out to be 25.5 nM. The “IC50 (nM) … using cyno sclerostin” value in experiment [4] was 31.6 nM.

B3: humanized anti-sclerostin monoclonal antibody 88 (antibody, human IgG4 S228P, kappa, V domains shown)
VH: QVQLVQSGAEVKKPGASVKVSCKVSGFPIKDTFQHWVRQAPGKGLEWMGWSDPEIGDTEYASKFQGRVTMTEDTSTDTAYMELSSLRSEDTAVYYCATGDTTYKFDFWGQGTTVTVSS
VL: DIQMTQSPSSLSASVGDRVTITCKASQDVHTAVAWYQQKPGKAPKLLIYWASTRWTGVPSRFSGSGSGTDFTLTISSLQPEDFATYYCQQYSDYPWTFGGGTKVEIKR
notes: Full-length humanized antibody; Derived from chimeric parent 788
As for B3, the Kd came to 75 pM in experiment [2] and 2.2 pM with rat sclerostin. Further, in experiment [4], the “IC50 (nM) … using cyno sclerostin” value is 23.7 nM.

A word on the Kd: it is the concentration at which binding is half-saturated.
